In patent US10253089B2, “Matrix metalloproteinase cleavable protein polymers for cancer gene therapy” (The University of Utah Research Foundation, priority 2012, dated 2019):

Tests used:
[1] = One week acute toxicity study (weight, CBC); assay type: in vivo, CD-1 immunocompetent mice
Protocol: Mice were anesthetized and maintained under anesthesia with 3% isofluorane in oxygen. After shaving and cleaning the injection site with 60% isopropanol, mice were subcutaneously injected in the right flank with 50 μl of solution using a 250 μl Hamilton syringe with a 26G needle. […] The injection site was gently clamped for 10 seconds to prevent leakage, after which mice were returned to their cages. For consistency, the day of viral injection was defined as day 0.
For treatment groups, a suspension of 1 mg GCV (Sigma Aldrich, St. Louis, Mo.) per ml of 0.9% physiological saline was prepared and sterilized through a 0.22 μm filter. Each day, animal weights were recorded, injection sites cleaned with 60% isopropanol, and mice injected i.p. with 1 mg/ml GCV suspension through a 26G needle sufficient for a total dose of 25 mg/kg body weight. Average dosing volume for these studies was approximately 0.6 ml. Mice were injected daily for the first four weeks of the 12 week recovery study, and for the entirety of the 1, 2, and 4 week studies.
Upon completion of each study, mice were individually euthanized using 70% CO2 in oxygen, with euthanasia confirmed by lack of breathing for 10 seconds. […] Injection sites were dissected for visual observation of local inflammation. Complete blood counts (CBCs) were performed within 2 hours of blood sample collection using a CBC-DIFF (Heska, Loveland, Colo.) blood count analyzer. Following CBC, samples were centrifuged at 10,000 rpm for 2.5 minutes and rapidly frozen at −80° C. for future analysis.
Safety studies were conducted in immunocompetent mice. In order to examine the ability of SELP to reduce the acute toxicity of the HSV-Tk/GCV system, 4-6 week old female CD-1 immunocompetent mice were injected subcutaneously with the conditions listed in Table 5. Weight was monitored daily for one week and daily injections of 25 mg/kg, intraperitoneal GCV were given to some groups as indicated in Table 5.
At the conclusion of the one week study, mice were sacrificed, and blood and organs were collected for analysis. […] These assessments were performed using a complete blood count.

MMP-2 = target: T1, MMP-2 (Homo sapiens, UniProt P08253); test: Hydrogel protein loss in the presence of MMP-2; assay type: biochemical; settings: 10 wt % hydrogel, MMP-2 10 nM, two weeks
T1 sequence (P08253 110-660): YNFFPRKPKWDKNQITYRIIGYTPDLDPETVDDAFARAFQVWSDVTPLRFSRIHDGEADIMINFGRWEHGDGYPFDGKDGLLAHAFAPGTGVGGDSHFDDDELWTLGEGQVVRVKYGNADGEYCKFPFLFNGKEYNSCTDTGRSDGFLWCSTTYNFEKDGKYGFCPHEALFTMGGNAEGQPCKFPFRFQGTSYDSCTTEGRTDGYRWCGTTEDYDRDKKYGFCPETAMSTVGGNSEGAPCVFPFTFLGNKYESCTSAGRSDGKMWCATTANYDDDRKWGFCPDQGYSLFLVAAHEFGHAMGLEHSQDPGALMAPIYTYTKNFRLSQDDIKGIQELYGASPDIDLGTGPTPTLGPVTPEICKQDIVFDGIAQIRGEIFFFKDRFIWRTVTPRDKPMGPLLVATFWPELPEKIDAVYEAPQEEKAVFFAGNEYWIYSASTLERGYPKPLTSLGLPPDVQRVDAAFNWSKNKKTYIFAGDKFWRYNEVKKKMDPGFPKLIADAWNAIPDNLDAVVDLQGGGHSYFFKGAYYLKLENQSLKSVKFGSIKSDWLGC
Protocol: (§1) The properties of hydrogels formed from SELPs are strongly dependent on the shear applied to liquid solutions of polymer prior to gelation. SELPs solubilized in phosphate buffered saline were loaded into a 1 ml luer-lock syringe connected at the hub to another 1 ml luer-lock syringe via two 27G needles, joined by a section of 0.0155″ HPLC tubing. The SELP solution was passed through this device at maximum hand pressure for five full bidirectional cycles, at which point it was used for studies.
(§2) Hydrogels were characterized for their sensitivity to MMP degradation in the context of protein loss from the gel, changes in mechanical properties, and release of model 100 nm fluorescent nanoparticles. […] Syringes were sealed with Parafilm and allowed to gel upright overnight at 37° C. […]
(§3) Protein loss was quantified using a Modified Lowry Assay Kit, and using known SELP solutions for the standard curve instead of the supplied bovine serum albumin, as SELP contains few Lowry-reactive amino acids. The mechanical properties of SELPs were evaluated in cyclic compression at 1 Hz and 1% strain, with ˜10 grams of preloading applied for 10 minutes to eliminate stress relaxation. Stress was measured using a 2 lb load cell. Release was quantified by measuring the fluorescence of release samples with an excitation/emission of 260/515. […]

MMP-9 = MMP-9 (Homo sapiens, UniProt P14780); test: Hydrogel protein loss in the presence of MMP-9; assay type: biochemical; settings: 10 wt % hydrogel, MMP-9 10 nM, two weeks
Protocol: as §1, §2, §3

Chain of MMP-9 (P14780 94-707): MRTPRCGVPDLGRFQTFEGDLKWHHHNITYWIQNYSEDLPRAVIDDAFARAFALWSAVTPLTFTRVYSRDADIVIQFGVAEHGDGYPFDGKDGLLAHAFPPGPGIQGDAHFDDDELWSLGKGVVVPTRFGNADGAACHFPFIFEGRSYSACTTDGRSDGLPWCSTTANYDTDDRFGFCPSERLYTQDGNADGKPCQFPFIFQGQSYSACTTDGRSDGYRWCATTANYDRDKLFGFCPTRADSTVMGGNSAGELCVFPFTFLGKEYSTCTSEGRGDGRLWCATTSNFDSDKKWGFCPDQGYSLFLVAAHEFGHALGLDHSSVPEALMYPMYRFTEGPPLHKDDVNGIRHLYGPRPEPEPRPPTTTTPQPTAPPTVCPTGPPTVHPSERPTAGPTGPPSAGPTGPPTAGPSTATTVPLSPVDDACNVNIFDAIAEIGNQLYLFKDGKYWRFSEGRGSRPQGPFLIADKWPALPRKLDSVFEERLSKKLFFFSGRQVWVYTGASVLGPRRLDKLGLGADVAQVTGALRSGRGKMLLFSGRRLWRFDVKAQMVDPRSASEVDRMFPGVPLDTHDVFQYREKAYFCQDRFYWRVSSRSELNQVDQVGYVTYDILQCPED

B1: SELP815K: silk-elastin-like protein polymer, longer silk units, fifteen elastin units, lysine elastin unit; monomer repeated 6 times (SEQ ID NO. 21) (protein)
chain: MDPVVLQRRDWENPGVTQLNRLAAHPPFASDPMGAGSGAGAGSGAGAGSGVGVPGVGVPGVGVPGVGVPGKGVPGVGVPGVGVPGVGVPGVGVPGVGVPGVGVPGVGVPGVGVPGVGVPGVGVPGVGVPGAGAGSGAGAGSGAGAGSGAGAGSGAGAGSGAGAGAGSGAGAGSGAGAGSGVGVPGVGVPGVGVPGVGVPGKGVPGVGVPGVGVPGVGVPGVGVPGVGVPGVGVPGVGVPGVGVPGVGVPGVGVPGVGVPGAGAGSGAGAGSGAGAGSGAGAGSGAGAGSGAGAGAGSGAGAGSGAGAGSGVGVPGVGVPGVGVPGVGVPGKGVPGVGVPGVGVPGVGVPGVGVPGVGVPGVGVPGVGVPGVGVPGVGVPGVGVPGVGVPGAGAGSGAGAGSGAGAGSGAGAGSGAGAGSGAGAGAGSGAGAGSGAGAGSGVGVPGVGVPGVGVPGVGVPGKGVPGVGVPGVGVPGVGVPGVGVPGVGVPGVGVPGVGVPGVGVPGVGVPGVGVPGVGVPGAGAGSGAGAGSGAGAGSGAGAGSGAGAGSGAGAGAGSGAGAGSGAGAGSGVGVPGVGVPGVGVPGVGVPGKGVPGVGVPGVGVPGVGVPGVGVPGVGVPGVGVPGVGVPGVGVPGVGVPGVGVPGVGVPGAGAGSGAGAGSGAGAGSGAGAGSGAGAGSGAGAGAGSGAGAGSGAGAGSGVGVPGVGVPGVGVPGVGVPGKGVPGVGVPGVGVPGVGVPGVGVPGVGVPGVGVPGVGVPGVGVPGVGVPGVGVPGVGVPGAGAGSGAGAGSGAGAGSGAGAGSGAGAGSGAGAMDPGRYQDLRSHHHHHH
modifications: monomer repeated 6 times; Hybrid of Homo sapein and Bombyx mori
GRA [1]: 1.125 ± 0.39 | LYM [1]: 4.475 ± 0.87 | MON [1]: 0.7 ± 0.27 | WBC [1]: 6.3 ± 0.79 | higher protein loss compared to control (MMP-2): statistically insignificant | higher protein loss compared to control (MMP-9): statistically insignificant
